Measured values published in patent US5917018.

Target: natural class I heavy chain molecules
Assay: binding to class I heavy chain, method not given

## recombinant murine β2-microglobulin
  affinity against that of human β2-microglobulin: 5 times lower
